Substitutions are numbered along the chain they refer to.
B1: C01_Rd4_6nM_C26 (antibody, V domains shown)
VH: EVQLLESGGGLVQPGGSLRLSCAASGFTFSSYPMSWVRQAPGKGLEWVSAIGGSGGSLPYADSVKGRFTISRDNSKNTLYLQMNSLRAEDTAVYYCARYWPMDSWGQGTLVTVSS
VL: EIVLTQSPGTLSLSPGERATLSCRASQSVSALYLAWYQQKPGQAPRLLIYDASSRAPGIPDRFSGSGSGTDFTLTISRLEPEDFAVYYCQQYSAWPLTFGQGTKVEIK
notes: IgG
B2: COMBO_Rd4_6nM_C12 (antibody, V domains shown)
VH: EVQLLESGGGLVQPGGSLRLSCAASGFTFSSYPMSWVRQAPGKGLEWVSAALGSGGSTYYADSVKGRFTISRDNSKNTLYLQMNSLRAEDTAVYYCARYWPMDSWGQGTLVTVS
VL: B1 VL with L32S, I49M, S54I, P57T, S93M, A94S
notes: IgG
B3: A02_Rd4_0.6nM_C18 (antibody, V domains shown)
VH: B1 VH with P33A, S35N, I51V, G52L, G53D, L58T, P59Y, D103S, S104L
VL: B1 VL with A31E, I49M, S54I, P57T, S93F, A94G
notes: IgG
B4: COMBO_Rd4_0.6nM_C22 (antibody, V domains shown)
VH: B1 VH with P33A, S35N, G52S, G53D, L58R, P59W, A97T, S104I
VL: B1 VL with Q27V, S28R, A31S, L32T, I49M, S54I, P57T, S93M, A94K
notes: IgG; also called COM22
B5: COMBO_Rd4_6nM_C09 (antibody, V domains shown)
VH: B1 VH with G52F, G53A, L58T, P59Y
VL: B1 VL with L32Q, I49M, S54I, P57T, S93Q
notes: IgG
B6: COMBO_Rd4_0.6nM_C05 (antibody, V domains shown)
VH: B1 VH with P33A, S35N, L58T, P59Y, D103S, S104L
VL: B1 VL with A31S, L32T, I49M, S54I, P57T, S93M, A94S
notes: IgG
B7: COMBO_Rd4_0.6nM_C30 (antibody, V domains shown)
VH: B1 VH with L58T, P59Y
VL: B1 VL with A31Y, L32M, S54I, P57T, S93K, A94S
notes: IgG
B8: COMBO_Rd4_0.6nM_C02 (antibody, V domains shown)
VH: B1 VH
VL: B1 VL with Q27I, S28A, A31S, L32T, I49M, S54I, P57T, S93M, A94V
notes: IgG
B9: COMBO_Rd4_0.6nM_C19 (antibody, V domains shown)
VH: B1 VH
VL: B1 VL with L32V, I49M, S54I, P57T, S93R
notes: IgG
B10: P5A2_VHVL (antibody, V domains shown)
VH: B1 VH with P33A, S35N, G52S, G53D, L58T, P59Y, S104I
VL: B1 VL with A31S, L32S, I49M, S54I, P57T, S93G, A94S
notes: IgG
B11: P5C1_VHVL (antibody, V domains shown)
VH: B1 VH with L58T, P59Y
VL: B1 VL with A31S, L32T, A94T, W95S
notes: IgG; also called PC1
B12: COMBO_Rd4_0.6nM_C23 (antibody, V domains shown)
VH: B1 VH with I51L, G52F, L58T, P59Y
VL: B1 VL with A25P, S26R, A31S, L32S, I49M, S54I, P57T, S93Q, A94D
notes: IgG
B13: COMBO_Rd4_6nM_C07 (antibody, V domains shown)
VH: B1 VH with D103A, S104D
VL: B1 VL with S28P, V29I, A31S, L32S, I49M, S54I, P57T, S93Q, A94G
notes: IgG
B14: COMBO_Rd4_6nM_C02 (antibody, V domains shown)
VH: B1 VH with P33A, S35N, G52S, G53D, S57F, L58V, P59Y
VL: B1 VL with A31S, L32S, I49M, S54I, P57T, S93E, A94F
notes: IgG
B15: COMBO_Rd4_0.6nM_C20 (antibody, V domains shown)
VH: B1 VH
VL: B1 VL with A31Y, I49M, S54I, P57T, S93M, A94E
notes: IgG
B16: COMBO_Rd4_0.6nM_C04 (antibody, V domains shown)
VH: B1 VH with I51H, G52I, L58T, P59Y
VL: B1 VL with A31S, L32T, I49M, S54I, P57T, S93Q, A94S
notes: IgG
B17: COMBO_Rd4_6nM_C10 (antibody, V domains shown)
VH: B1 VH with L58I, P59H
VL: B1 VL with A31S, L32S, L34W, A35G, I49M, S54I, P57T, S93Q, A94C
notes: IgG
B18: COMBO_Rd4_0.6nM_C17 (antibody, V domains shown)
VH: B1 VH with S104I
VL: B1 VL with S28G, V29I, A31S, L32T, I49M, S54I, P57T, S93A, A94Y
notes: IgG
B19: COMBO_Rd4_6nM_C25 (antibody, V domains shown)
VH: B1 VH with L58T, P59Y, S104P
VL: B1 VL with A31S, L32P, I49M, S54I, P57T, S93Q, A94S
notes: IgG
B20: COMBO_Rd4_6nM_C22 (antibody, V domains shown)
VH: B1 VH with P33A, S35N, I51C, G52L, G53D, L58T, P59Y
VL: B1 VL with A31S, L32S, I49M, S54I, P57T, S93Q, A94G
notes: IgG
B21: COMBO_Rd4_6nM_C08 (antibody, V domains shown)
VH: B1 VH with G56T, S57W, L58T, P59Y
VL: B1 VL with A31S, L32S, I49M, S54I, P57T, S93Q, A94K
notes: IgG
B22: COMBO_Rd4_0.6nM_C14 (antibody, V domains shown)
VH: B1 VH with S104I
VL: B1 VL with I49M, S54I, P57T, S93Y, A94G
notes: IgG
B23: COMBO_Rd4_6nM_C21 (antibody, V domains shown)
VH: B1 VH
VL: B1 VL with L32A, I49M, S54I, P57T, S93M, A94C
notes: IgG
B24: COMBO_Rd4_0.6nM_C11 (antibody, V domains shown)
VH: B1 VH with I51A, G52L, L58T, P59Y, D103S, S104L
VL: B1 VL with A31V, L32R, I49M, S54I, P57T, S93G, A94S, L97I
notes: IgG
B25: COMBO_Rd4_0.6nM_C09 (antibody, V domains shown)
VH: B1 VH with S104I
VL: B1 VL with A31S, L32T, I49M, S54I, P57T, S93Q, A94E
notes: IgG
B26: COMBO_Rd4_6nM_C11 (antibody, V domains shown)
VH: B1 VH with P59G
VL: B1 VL with A31P, I49M, S54I, P57T, S93K
notes: IgG
B27: L3.PY/L3.KF/H3.AQ (antibody, V domains shown)
VH: EVQLLESGGGLVQPGGSLRLSCAASGFTFGSYAMTWVRQAPGKGLEWVSAISGSGGNTFYADSVKGRFTISRDNSKNTLYLQMNSLRAEDTAVYYCARVSPIAAQMDYWGQGTLVTVSS
VL: EIVLTQSPGTLSLSPGERATLSCRASQSVSSSYLAWYQQKPGQAPRLLIYGASSRATGIPDRFSGSGSGTDFTLTISRLEPEDFAVYYCKFYPYPPSFTFGQGTKVEIK
notes: IgG

These binders were tested against Human BCMA (human) (UniProt Q02223) (assay: SPR, IgG on chip, huBCMA analyte).

Binder | Kd | koff | kon
B1 | 0.09 nM | 0.00136 s⁻¹ | 1.5e+07 M⁻¹ s⁻¹
B2 | 0.02 nM | 0.00027 s⁻¹ | 1.38e+07 M⁻¹ s⁻¹
B3 | 0.048 nM | 0.000229 s⁻¹ | 4.73e+06 M⁻¹ s⁻¹
B4 | 0.036 nM | 7.15e-05 s⁻¹ | 1.97e+06 M⁻¹ s⁻¹
B5 | 0.016 nM | 0.000143 s⁻¹ | 8.85e+06 M⁻¹ s⁻¹
B6 | 0.115 nM | 0.000497 s⁻¹ | 4.32e+06 M⁻¹ s⁻¹
B7 | 0.065 nM | 0.000282 s⁻¹ | 4.35e+06 M⁻¹ s⁻¹
B8 | 0.022 nM | 0.000185 s⁻¹ | 8.57e+06 M⁻¹ s⁻¹
B9 | 0.02 nM | 0.000155 s⁻¹ | 7.86e+06 M⁻¹ s⁻¹
B10 | 5.57 nM | 0.0387 s⁻¹ | 6.96e+06 M⁻¹ s⁻¹
B11 | 5.99 nM | 0.0692 s⁻¹ | 1.16e+07 M⁻¹ s⁻¹
B12 | 0.028 nM | 0.00021 s⁻¹ | 7.39e+06 M⁻¹ s⁻¹
B13 | 0.035 nM | 0.000371 s⁻¹ | 1.05e+07 M⁻¹ s⁻¹
B14 | 0.422 nM | 0.000443 s⁻¹ | 1.05e+06 M⁻¹ s⁻¹
B15 | 0.019 nM | 0.000146 s⁻¹ | 7.65e+06 M⁻¹ s⁻¹
B16 | 0.015 nM | 0.000158 s⁻¹ | 1.07e+07 M⁻¹ s⁻¹
B17 | 0.018 nM | 9.72e-05 s⁻¹ | 5.47e+06 M⁻¹ s⁻¹
B18 | 0.092 nM | 0.000801 s⁻¹ | 8.68e+06 M⁻¹ s⁻¹
B19 | 0.014 nM | 0.000113 s⁻¹ | 7.98e+06 M⁻¹ s⁻¹
B20 | 0.256 nM | 0.000775 s⁻¹ | 3.03e+06 M⁻¹ s⁻¹
B21 | 0.019 nM | 0.000169 s⁻¹ | 8.99e+06 M⁻¹ s⁻¹
B22 | 0.038 nM | 0.000328 s⁻¹ | 8.66e+06 M⁻¹ s⁻¹
B23 | 0.006 nM | 7.34e-05 s⁻¹ | 1.17e+07 M⁻¹ s⁻¹
B24 | 0.207 nM | 0.00106 s⁻¹ | 5.11e+06 M⁻¹ s⁻¹
B25 | 0.031 nM | 0.000319 s⁻¹ | 1.04e+07 M⁻¹ s⁻¹
B26 | 0.018 nM | 0.000124 s⁻¹ | 6.74e+06 M⁻¹ s⁻¹

What follows are binders tested against Human BCMA (human) (UniProt Q02223) (assay: SPR, IgG immobilised, huBCMA analyte, 37 C).

Binder | Kd | T½ | koff | kon
B27 | 0.65 nM | 5.09 min | 0.00227 s⁻¹ | 3.48e+06 M⁻¹ s⁻¹

The binders below were run against T1, cynomolgus monkey BCMA (cynomolgus monkey, UniProt A0A2K5UD97 1-53) (assay: SPR, IgG on chip, cyBCMA analyte).
T1 construct: Soluble analyte in SPR; construct not described; also called cyBCMA; Cyno BCMA
T1 sequence (A0A2K5UD97 entry or part of it): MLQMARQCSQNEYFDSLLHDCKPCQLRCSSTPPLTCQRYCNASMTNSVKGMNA

Binder | Kd | koff | kon
B1 | 0.419 nM | 0.00199 s⁻¹ | 4.75e+06 M⁻¹ s⁻¹
B2 | 0.148 nM | 0.000486 s⁻¹ | 3.29e+06 M⁻¹ s⁻¹
B3 | 0.197 nM | 0.000639 s⁻¹ | 3.24e+06 M⁻¹ s⁻¹
B4 | 0.05 nM | 6.66e-05 s⁻¹ | 1.34e+06 M⁻¹ s⁻¹
B5 | 0.134 nM | 0.000318 s⁻¹ | 2.37e+06 M⁻¹ s⁻¹
B6 | 0.886 nM | 0.00172 s⁻¹ | 1.94e+06 M⁻¹ s⁻¹
B7 | 0.481 nM | 0.000808 s⁻¹ | 1.68e+06 M⁻¹ s⁻¹
B8 | 0.164 nM | 0.000494 s⁻¹ | 3.01e+06 M⁻¹ s⁻¹
B9 | 0.336 nM | 0.000979 s⁻¹ | 2.92e+06 M⁻¹ s⁻¹
B10 | 10.2 nM | 0.0164 s⁻¹ | 1.61e+06 M⁻¹ s⁻¹
B11 | 15.2 nM | 0.0538 s⁻¹ | 3.53e+06 M⁻¹ s⁻¹
B12 | 0.189 nM | 0.000531 s⁻¹ | 2.81e+06 M⁻¹ s⁻¹
B13 | 0.237 nM | 0.000934 s⁻¹ | 3.94e+06 M⁻¹ s⁻¹
B14 | 1.71 nM | 0.00136 s⁻¹ | 795000 M⁻¹ s⁻¹
B15 | 0.092 nM | 0.000284 s⁻¹ | 3.09e+06 M⁻¹ s⁻¹
B16 | 0.039 nM | 0.000137 s⁻¹ | 3.52e+06 M⁻¹ s⁻¹
B17 | 0.105 nM | 0.00016 s⁻¹ | 1.52e+06 M⁻¹ s⁻¹
B18 | 0.33 nM | 0.00101 s⁻¹ | 3.06e+06 M⁻¹ s⁻¹
B19 | 0.079 nM | 0.000226 s⁻¹ | 2.85e+06 M⁻¹ s⁻¹
B20 | 0.972 nM | 0.00165 s⁻¹ | 1.7e+06 M⁻¹ s⁻¹
B21 | 0.14 nM | 0.000428 s⁻¹ | 3.06e+06 M⁻¹ s⁻¹
B22 | 0.185 nM | 0.000645 s⁻¹ | 3.48e+06 M⁻¹ s⁻¹
B23 | 0.078 nM | 0.000248 s⁻¹ | 3.17e+06 M⁻¹ s⁻¹
B24 | 1.92 nM | 0.00423 s⁻¹ | 2.2e+06 M⁻¹ s⁻¹
B25 | 0.092 nM | 0.000346 s⁻¹ | 3.77e+06 M⁻¹ s⁻¹
B26 | 0.156 nM | 0.000412 s⁻¹ | 2.64e+06 M⁻¹ s⁻¹

What follows are binders tested against T1, cynomolgus monkey BCMA (assay: SPR, IgG on chip, cyBCMA analyte, 37C).

Binder | Kd | T½ | koff | kon
B27 | 0.93 nM | 4.85 min | 0.00238 s⁻¹ | 2.55e+06 M⁻¹ s⁻¹
